Where a chain is given by its changes, count along the chain named.
T1: human FcγRIIa-H (the high-affinity H131 variant) (human, UniProt P12318 34-317)
T1 sequence (looked up): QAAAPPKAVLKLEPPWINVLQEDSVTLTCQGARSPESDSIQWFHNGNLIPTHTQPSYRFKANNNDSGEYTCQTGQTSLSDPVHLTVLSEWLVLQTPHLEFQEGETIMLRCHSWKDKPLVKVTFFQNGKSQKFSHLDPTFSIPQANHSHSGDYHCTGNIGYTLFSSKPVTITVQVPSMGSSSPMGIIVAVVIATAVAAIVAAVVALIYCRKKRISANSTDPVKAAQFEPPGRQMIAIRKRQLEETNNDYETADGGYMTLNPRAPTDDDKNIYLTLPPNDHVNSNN

B1: AIP-169752 (antibody, V domains shown)
VH: EVQLVESGGALVKPGGSLRLSCAASGFTFSKAWMSWVRQAPGKGLEWVGRIKSVTDGETTDYAAPVKGRFTISRDDSKSTLYLQMNSLKTEDTAVYYCTSSFCCRGGGSCPSHDTSYCGGQYKSYYYMDVWGKGTTVTVSS
VL: QSVLTQPPSASGTPGQRVTISCSGSSSNIGSSSVSWYQQLPGTAPKLLIYKNNQRPSGVPDRFSGSKSGTSASLAISGLRSEDEADYYCSTWDDSLSVRVFGGGTKLTVL
B2: AIP-107388 (antibody, V domains shown)
VH: EVQLVESGGALVKPGGSLRLSCAASGFTFSKAWMSWVRQAPGKGLEWVGRIKSVTDGETTDYAAPVKGRFTISRDDSKSTLYLQMNSLKTEDTAVYYCTSSFCCRGGSCPSHDTSYCGGGQYKSYYYMDVWGKGTTVTVSS
VL: B1 VL
B3: AIP-194564 (antibody, V domains shown)
VH: B1 VH with G106S
VL: B1 VL
B4: AIP-182606 (antibody, V domains shown)
VH: EVQLVESGGALVKPGGSLRLSCAASGFTFSKAWMSWVRQAPGKGLEWVGRIKSVTDGETTDYAAPVKGRFTISRDDSKSTLYLQMNSLKTEDTAVYYCTSSFSCRGGSCPSHDTSYGGQYKSYYYMDVWGKGTTVTVSS
VL: B1 VL
B5: AIP-125646 (antibody, V domains shown)
VH: B4 VH with S103C, G117C
VL: B1 VL
B6: AIP-191692 (antibody, V domains shown)
VH: EVQLVESGGALVKPGGSLRLSCAASGFTFSKAWMSWVRQAPGKGLEWVGRIKSVTDGETTDYAAPVKGRFTISRDDSKSTLYLQMNSLKTEDTAVYYCTSSFCCRGGSCPSHDTSYCGGGSGYKSYYYMDVWGKGTTVTVSS
VL: B1 VL
B7: AIP-145328 (antibody, V domains shown)
VH: EVQLVESGGALVKPGGSLRLSCAASGFTFSKAWMSWVRQAPGKGLEWVGRIKSVTDGETTDYAAPVKGRFTISRDDSKSTLYLQMNSLKTEDTAVYYCTSSFCCRGGSGGSCPSHDTSYCGGQYKSYYYMDVWGKGTTVTVSS
VL: B1 VL
B8: AIP-167295 (antibody, V domains shown)
VH: B4 VH with S103C, G117C, Q119G, Y120Q, K121Y
VL: B1 VL
B9: AIP-131762 (antibody, V domains shown)
VH: EVQLVESGGALVKPGGSLRLSCAASGFTFSKAWMSWVRQAPGKGLEWVGRIKSVTDGETTDYAAPVKGRFTISRDDSKSTLYLQMNSLKTEDTAVYYCTSSFCGGPSHDTSYCGGQYKSYYYMDVWGKGTTVTVSS
VL: B1 VL
B10: AIP-185680 (antibody, V domains shown)
VH: EVQLVESGGALVKPGGSLRLSCAASGFTFSKAWMSWVRQAPGKGLEWVGRIKSVTDGETTDYAAPVKGRFTISRDDSKSTLYLQMNSLKTEDTAVYYCTSSFCCRGGGGSCPSHDTSYCGGQYKSYYYMDVWGKGTTVTVSS
VL: B1 VL
B11: AIP-163723 (antibody, V domains shown)
VH: B4 VH with S103C, G117C, Q119G, Y120Q
VL: B1 VL
B12: AIP-114111 (antibody, V domains shown)
VH: B2 VH with G120Q, Q121Y, Y122K, K123S
VL: B1 VL

Biological target: T1, human FcγRIIa-H (the high-affinity H131 …)
Experiment: cell-based or functional assay

Binder	Avg ΔActivity Rank	EC50	Fold ΔActivity
B1	2		
B2	2		
B3	2	472 nM	0.58
B4	2		
B5	2.5	446 nM	0.75
B6	2		
B7	2		
B8	2		
B9	1		
B10	1		
B11	2		
B12	2	258 nM	0.55
